US20210292396A1

Tests used:
Experiment in all cases: cell-based or functional assay
[1] = target: Env of HIV isolate 001428-2.42 (clade C) (HIV)
[2] = target: Env of HIV isolate 0330.v4.c3 (clade A) (HIV)
[3] = target: Env of HIV isolate 0921.v2.c14 (clade C) (HIV)
[4] = target: Env of HIV isolate 25925-2.22 (clade C) (HIV)
[5] = target: Env of HIV isolate 269-12 (clade AG) (HIV)
[6] = target: Env of HIV isolate 6405.v4.c34 (clade D) (HIV)
[7] = target: Env of HIV isolate 6644.v2.c33 (clade C) (HIV)
[8] = target: Env of HIV isolate BJOX009000.02.4 (clade AE) (HIV)
[9] = target: Env of HIV isolate BJOX025000.01.1 (clade AE) (HIV)
[10] = target: Env of HIV isolate C4118.09 (clade AE) (HIV)
[11] = target: Env of HIV isolate CNE15 (clade BC) (HIV)
[12] = target: Env of HIV isolate DU156.12 (clade C) (HIV)
[13] = target: Env of HIV isolate KER2008.12 (clade A) (HIV)
[14] = target: Env of HIV isolate MB201.A1 (clade A) (HIV)
[15] = target: Env of HIV isolate MB539.2B7 (clade A) (HIV)
[16] = target: Env of HIV isolate P1981.C5.3 (clade G) (HIV)
[17] = target: Env of HIV isolate REJO.67 (clade B) (HIV)
[18] = target: Env of HIV isolate TZBD.02 (clade C) (HIV)
[19] = target: Env of HIV isolate X1193.c1 (clade G) (HIV)
[20] = target: Env of HIV isolate X1254.c3 (clade G) (HIV)
[21] = target: Env of HIV isolate YU2.DG (clade B) (HIV)
[22] = target: Env of HIV isolate ZA012.29 (clade C) (HIV)
[23] = target: HIV Env of isolate 00836-2.5 (HIV)
[24] = target: HIV Env of isolate 0330.v4.c3 (HIV)
[25] = target: HIV Env of isolate 0439.v5.c1 (HIV)
[26] = target: HIV Env of isolate 231965.c01 (HIV)
[27] = target: HIV Env of isolate 235-47 (HIV)
[28] = target: HIV Env of isolate 288.38 (HIV)
[29] = target: HIV Env of isolate 3637.v5.c3 (HIV)
[30] = target: HIV Env of isolate 6545.v4.c1 (HIV)
[31] = target: HIV Env of isolate 6631.v3.c10 (HIV)
[32] = target: HIV Env of isolate 6644.v2.c33 (HIV)
[33] = target: HIV Env of isolate 96ZM651.02 (HIV)
[34] = target: HIV Env of isolate A07412M1.vrc12 (HIV)
[35] = target: HIV Env of isolate ADA.DG (HIV)
[36] = target: HIV Env of isolate BJOX002000.03.2 (HIV)
[37] = target: HIV Env of isolate C4118.09 (HIV)
[38] = target: HIV Env of isolate CH181.12 (HIV)
[39] = target: HIV Env of isolate CNE14 (HIV)
[40] = target: HIV Env of isolate CNE20 (HIV)
[41] = target: HIV Env of isolate CNE59 (HIV)
[42] = target: HIV Env of isolate KER2008.12 (HIV)
[43] = target: HIV Env of isolate KER2018.11 (HIV)
[44] = target: HIV Env of isolate NKU3006.ec1 (HIV)
[45] = target: HIV Env of isolate QH0515.01 (HIV)
[46] = target: HIV Env of isolate RW020.2 (HIV)
[47] = target: HIV Env of isolate T251-18 (HIV)
[48] = target: HIV Env of isolate T253-11 (HIV)
[49] = target: HIV Env of isolate TH976.17 (HIV)
[50] = target: HIV Env of isolate UG021.16 (HIV)
[51] = target: HIV Env of isolate WITO.33 (HIV)
[52] = target: HIV Env of isolate X1254.c3 (HIV)
[53] = target: HIV Env of isolate X2131.C1.B5 (HIV)

PGT121 (antibody)
IC50, pseudovirus neutralization [1]: 0.0337 µg/mL
IC50, pseudovirus neutralization [2]: 0.0597 µg/mL
IC50, pseudovirus neutralization [3]: > 50 µg/mL
IC50, pseudovirus neutralization [4]: 0.045 µg/mL
IC50, pseudovirus neutralization [5]: 0.128 µg/mL
IC50, pseudovirus neutralization [6]: 0.042 µg/mL
IC50, pseudovirus neutralization [7]: 0.037 µg/mL
IC50, pseudovirus neutralization [8]: 0.751 µg/mL
IC50, pseudovirus neutralization [9]: > 50 µg/mL
IC50, pseudovirus neutralization [10]: > 50 µg/mL
IC50, pseudovirus neutralization [11]: 6.64 µg/mL
IC50, pseudovirus neutralization [12]: 0.0147 µg/mL
IC50, pseudovirus neutralization [13]: 0.553 µg/mL
IC50, pseudovirus neutralization [14]: 0.00933 µg/mL
IC50, pseudovirus neutralization [15]: > 50 µg/mL
IC50, pseudovirus neutralization [16]: 0.007 µg/mL
IC50, pseudovirus neutralization [17]: 1.96 µg/mL
IC50, pseudovirus neutralization [18]: 0.0257 µg/mL
IC50, pseudovirus neutralization [19]: 0.0457 µg/mL
IC50, pseudovirus neutralization [20]: 0.0347 µg/mL
IC50, pseudovirus neutralization [21]: 0.0397 µg/mL
IC50, pseudovirus neutralization [22]: 0.0117 µg/mL
IC80, pseudovirus neutralization [23]: > 50 µg/mL
IC80 [24]: 0.211 µg/mL
IC80 [25]: > 50 µg/mL
IC80, pseudovirus neutralization [26]: > 50 µg/mL
IC80 [27]: 0.614 µg/mL
IC80, pseudovirus neutralization [28]: 0.0443 µg/mL
IC80, pseudovirus neutralization [29]: > 50 µg/mL
IC80 [30]: > 50 µg/mL
IC80, pseudovirus neutralization [31]: > 50 µg/mL
IC80, pseudovirus neutralization [32]: 0.14 µg/mL
IC80, pseudovirus neutralization [33]: 0.0613 µg/mL
IC80, pseudovirus neutralization [34]: 0.208 µg/mL
IC80 [35]: 0.109 µg/mL
IC80 [36]: 0.068 µg/mL
IC80 [37]: > 50 µg/mL
IC80, pseudovirus neutralization [38]: 0.083 µg/mL
IC80 [39]: 0.0243 µg/mL
IC80, pseudovirus neutralization [40]: 0.0127 µg/mL
IC80 [41]: > 50 µg/mL
IC80 [42]: 6.55 µg/mL
IC80 [43]: > 50 µg/mL
IC80, pseudovirus neutralization [44]: > 50 µg/mL
IC80 [45]: > 50 µg/mL
IC80 [46]: 0.0177 µg/mL
IC80 [47]: 23.2 µg/mL
IC80 [48]: > 50 µg/mL
IC80 [49]: > 50 µg/mL
IC80, pseudovirus neutralization [50]: > 50 µg/mL
IC80 [51]: 2.02 µg/mL
IC80, pseudovirus neutralization [52]: 0.106 µg/mL
IC80, pseudovirus neutralization [53]: 0.036 µg/mL
